# Measured values published in the supplement of paper PMC9112550, “Optimization of the antimicrobial peptide Bac7 by deep mutational scanning” (BMC Biology, 2022).
# Tested on: Escherichia coli TOP10
# Experiment: shrunken log2 fold change of peptide-encoding DNA abundance (4.5 h post-induction vs induction); higher = less antimicrobial activity (less host growth inhibition)
# Settings: time post-induction: 4.5 h; library: site-saturation at positions 5, 18, 19, 20
# 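Note: peptides expressed intracellularly from a pBAD plasmid library in pooled LB shake-flask culture, induced with 0.3% L-arabinose, DNA abundance read by NGS, three biological replicates, DESeq2 with apeglm shrinkage.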
row,Sequence,shrunken log2 fold change
1,RRIRQRPPRLPRPRPRPEEYPRP,0.0748
2,RRIRGRPPRLPRPRPRPFMSPRP,-0.192
3,RRIRTRPPRLPRPRPRPNILPRP,-0.484
4,RRIRERPPRLPRPRPRPQKGPRP,-0.213
5,RRIRNRPPRLPRPRPRPGWVPRP,0.282
6,RRIRRRPPRLPRPRPRPAAPPRP,0.922
7,RRIRQRPPRLPRPRPRPPLFPRP,0.838
8,RRIRVRPPRLPRPRPRPAVEPRP,0.565
9,RRIRMRPPRLPRPRPRPYVEPRP,-0.133
10,RRIRGRPPRLPRPRPRPQLGPRP,0.649
11,RRIRKRPPRLPRPRPRPDPVPRP,-0.146
12,RRIRSRPPRLPRPRPRPDGAPRP,0.289
13,RRIRDRPPRLPRPRPRPRFKPRP,-0.0405
14,RRIRWRPPRLPRPRPRPDDYPRP,0.0299
15,RRIRQRPPRLPRPRPRPWNAPRP,0.00391
16,RRIRFRPPRLPRPRPRPGGFPRP,0.42
17,RRIRPRPPRLPRPRPRPRIEPRP,0.175
18,RRIRPRPPRLPRPRPRPAFCPRP,0.104
19,RRIRDRPPRLPRPRPRPMTMPRP,-0.00418
20,RRIRVRPPRLPRPRPRPTDVPRP,0.0418
21,RRIRMRPPRLPRPRPRPEAGPRP,2.36
22,RRIRARPPRLPRPRPRPNEEPRP,0.276
23,RRIRMRPPRLPRPRPRPSRMPRP,0.454
24,RRIRFRPPRLPRPRPRPMPGPRP,-0.0263
25,RRIRPRPPRLPRPRPRPKHEPRP,0.0756

row,Sequence,shrunken log2 fold change
1,RRIRTRPPRLPRPRPRPKAEPRP,-0.000916
2,RRIRERPPRLPRPRPRPQTNPRP,-0.554
3,RRIRHRPPRLPRPRPRPYAYPRP,-0.596
4,RRIRWRPPRLPRPRPRPENPPRP,-0.0117
5,RRIRERPPRLPRPRPRPWDDPRP,-0.0464
6,RRIRMRPPRLPRPRPRPQLHPRP,0.546
7,RRIRPRPPRLPRPRPRPTDIPRP,-0.241
8,RRIRLRPPRLPRPRPRPCVCPRP,-0.00623
9,RRIRCRPPRLPRPRPRPLNKPRP,-0.695
10,RRIRTRPPRLPRPRPRPGDQPRP,-0.0663
11,RRIRHRPPRLPRPRPRPVICPRP,-0.0717
12,RRIRGRPPRLPRPRPRPCKVPRP,0.00141
13,RRIRNRPPRLPRPRPRPNNFPRP,-0.447
14,RRIRPRPPRLPRPRPRPSQHPRP,-0.278
15,RRIRWRPPRLPRPRPRPHPSPRP,0.452
16,RRIRMRPPRLPRPRPRPYQAPRP,2.21
17,RRIRHRPPRLPRPRPRPHEWPRP,0.00275
18,RRIRYRPPRLPRPRPRPTQKPRP,-0.0476
19,RRIRDRPPRLPRPRPRPSSWPRP,-0.0298
20,RRIRLRPPRLPRPRPRPITIPRP,0.0213
21,RRIRWRPPRLPRPRPRPDQEPRP,-0.00154
22,RRIRVRPPRLPRPRPRPIPYPRP,-0.0701
23,RRIRSRPPRLPRPRPRPGRYPRP,-0.344
24,RRIRVRPPRLPRPRPRPIGYPRP,0.117
25,RRIRDRPPRLPRPRPRPKMVPRP,0.223

row,Sequence,shrunken log2 fold change
1,RRIRDRPPRLPRPRPRPHNPPRP,-0.231
2,RRIRKRPPRLPRPRPRPTESPRP,0.00281
3,RRIRDRPPRLPRPRPRPVRDPRP,0.203
4,RRIRLRPPRLPRPRPRPIFQPRP,-0.192
5,RRIRNRPPRLPRPRPRPFMKPRP,-0.0163
6,RRIRARPPRLPRPRPRPLNRPRP,0.0549
7,RRIRHRPPRLPRPRPRPKKEPRP,-0.0501
8,RRIRGRPPRLPRPRPRPMHQPRP,0.696
9,RRIRWRPPRLPRPRPRPYCYPRP,-0.562
10,RRIRNRPPRLPRPRPRPCWFPRP,-0.00192
11,RRIRVRPPRLPRPRPRPGGNPRP,-0.0392
12,RRIRARPPRLPRPRPRPAYQPRP,0.106
13,RRIRQRPPRLPRPRPRPYNFPRP,-0.0266
14,RRIRCRPPRLPRPRPRPMARPRP,0.352
15,RRIRQRPPRLPRPRPRPPWNPRP,0.0241
16,RRIRCRPPRLPRPRPRPENPPRP,-0.0628
17,RRIRKRPPRLPRPRPRPFQEPRP,0.149
18,RRIRARPPRLPRPRPRPDCHPRP,1.05
19,RRIRVRPPRLPRPRPRPYDPPRP,-0.468
20,RRIRGRPPRLPRPRPRPNNDPRP,0.247
21,RRIRHRPPRLPRPRPRPNSGPRP,-0.194
22,RRIRVRPPRLPRPRPRPCSFPRP,0.0114
23,RRIRRRPPRLPRPRPRPDFVPRP,-0.0983
24,RRIRNRPPRLPRPRPRPEQAPRP,0.632
25,RRIRHRPPRLPRPRPRPCMHPRP,-0.38

row,Sequence,shrunken log2 fold change
1,RRIRIRPPRLPRPRPRPGMCPRP,-0.238
2,RRIRWRPPRLPRPRPRPFQRPRP,0.00938
3,RRIRGRPPRLPRPRPRPLYDPRP,0.135
4,RRIRCRPPRLPRPRPRPNHLPRP,-0.437
5,RRIRIRPPRLPRPRPRPAKGPRP,-0.224
6,RRIRSRPPRLPRPRPRPIGFPRP,-0.0486
7,RRIRMRPPRLPRPRPRPCTAPRP,0.191
8,RRIRCRPPRLPRPRPRPGGMPRP,0.215
9,RRIRYRPPRLPRPRPRPGAGPRP,0.0814
10,RRIRYRPPRLPRPRPRPIFWPRP,0.0187
11,RRIRLRPPRLPRPRPRPHRHPRP,-0.361
12,RRIRRRPPRLPRPRPRPSNVPRP,0.27
13,RRIRNRPPRLPRPRPRPIFWPRP,-0.162
14,RRIRARPPRLPRPRPRPDIYPRP,0.115
15,RRIRNRPPRLPRPRPRPPAKPRP,0.521
16,RRIRKRPPRLPRPRPRPDHSPRP,-0.148
17,RRIRMRPPRLPRPRPRPWRKPRP,0.506
18,RRIRERPPRLPRPRPRPGNMPRP,-0.0808
19,RRIRDRPPRLPRPRPRPMDTPRP,-0.0196
20,RRIRCRPPRLPRPRPRPCESPRP,-0.0611
21,RRIRWRPPRLPRPRPRPCCSPRP,-0.0402
22,RRIRIRPPRLPRPRPRPDEQPRP,0.0601
23,RRIRIRPPRLPRPRPRPFFYPRP,-0.416
24,RRIRMRPPRLPRPRPRPNWEPRP,0.0757
25,RRIRCRPPRLPRPRPRPSIMPRP,-0.684

row,Sequence,shrunken log2 fold change
1,RRIRPRPPRLPRPRPRPRCLPRP,-0.0858
2,RRIRDRPPRLPRPRPRPGLWPRP,1.37
3,RRIRERPPRLPRPRPRPMMFPRP,-0.0555
4,RRIRIRPPRLPRPRPRPQMNPRP,-0.887
5,RRIRNRPPRLPRPRPRPKYKPRP,-0.726
6,RRIRLRPPRLPRPRPRPQFSPRP,-0.907
7,RRIRSRPPRLPRPRPRPQEYPRP,-0.257
8,RRIRYRPPRLPRPRPRPAFAPRP,-0.0121
9,RRIRERPPRLPRPRPRPYDFPRP,-0.0231
10,RRIRDRPPRLPRPRPRPDFMPRP,0.161
11,RRIRGRPPRLPRPRPRPVHGPRP,-0.244
12,RRIRNRPPRLPRPRPRPHHMPRP,-1.41
13,RRIRIRPPRLPRPRPRPDRAPRP,-0.169
14,RRIRCRPPRLPRPRPRPEGHPRP,0.38
15,RRIRLRPPRLPRPRPRPRVKPRP,-0.0432
16,RRIRGRPPRLPRPRPRPFYPPRP,-0.62
17,RRIRRRPPRLPRPRPRPCLFPRP,-0.0047
18,RRIRLRPPRLPRPRPRPNVIPRP,-0.106
19,RRIRMRPPRLPRPRPRPSLRPRP,0.626
20,RRIRRRPPRLPRPRPRPIDNPRP,-0.349
21,RRIRERPPRLPRPRPRPYTMPRP,-0.0431
22,RRIRERPPRLPRPRPRPQLVPRP,0.0441
23,RRIRRRPPRLPRPRPRPDMIPRP,-0.0332
24,RRIRPRPPRLPRPRPRPHTYPRP,-0.942
25,RRIRQRPPRLPRPRPRPFCTPRP,-0.246
